Three molecules from patent publication US20140286950A1 (Genentech, published 2014) can be followed below.

The target in test [1] is T1, N-terminal HIS-tagged human CD83 stably expressed on CHO cells (CHO-hCD83) (human, UniProt Q01151 20-205).
T1 construct: also called CHO cells expressing human CD83; not shown: N-terminal HIS tag
T1 sequence: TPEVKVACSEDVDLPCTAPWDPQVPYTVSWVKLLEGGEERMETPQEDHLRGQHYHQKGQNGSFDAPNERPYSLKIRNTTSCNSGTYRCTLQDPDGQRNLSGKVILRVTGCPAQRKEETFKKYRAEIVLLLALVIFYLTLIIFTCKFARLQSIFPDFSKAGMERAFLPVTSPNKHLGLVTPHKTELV
Kind of test: flow cytometry on CHO-hCD83 cells, anti-hamster IgG secondary. How it is done: (§1) The generated antibodies were assayed for their ability to bind human CD83 or mouse CD83 stably expressed on CHO cells. To generate an expression vector for the production of the stable cell lines, a DNA fragment encoding an N-terminal HIS-tagged human CD83 (hCD83) or an N-terminal HIS-tagged mouse CD83 (mCD83) was cloned into the neomycin-resistance plasmid, pRKneo (Crowley et al., Proc Natl Acad Sci USA., 90(11):5021-5025, 1993), at the XbaI and XhoI sites to produce hCD83.pRKneo or mCD83.pRKneo, respectively. CHO cells were transfected with hCD83.pRKneo or mCD83.pRKneo using Fugene (Roche) and the top 10% of CD83 positive cells were sorted by FACS then selected with G418 ([…]; GIBCO) to generate the stable CHO-hCD83 or CHO-mCD83 cell line, respectively. CHO-hCD83 and CHO-mCD83 cells were resuspended in a FACS buffer containing PBS/2% BSA/2 mM EDTA and incubated with anti-human CD83 antibodies or anti-mouse CD83 antibodies for 30 minutes on ice. Cells were washed with FACS buffer and then incubated with a fluorochrome conjugated anti-hamster IgG secondary antibody for 30 minutes on ice in the dark. Cells were washed with FACS buffer and analyzed by flow cytometry on a LSR II flow cytometer using FACSDiva software (Becton Dickinson). Data analysis and construction of diagrams was done using FlowJo v.9.4.11.
In general terms: Flow cytometry measures light scatter and fluorescence of single cells or particles in a stream.

In test [2] the target is T2, N-terminal HIS-tagged mouse CD83 stably expressed on CHO cells (CHO-mCD83) (mouse, UniProt O88324 22-196).
T2 construct: whole, on cells; also called CHO cells expressing mouse CD83; not shown: N-terminal HIS tag
T2 sequence (looked up): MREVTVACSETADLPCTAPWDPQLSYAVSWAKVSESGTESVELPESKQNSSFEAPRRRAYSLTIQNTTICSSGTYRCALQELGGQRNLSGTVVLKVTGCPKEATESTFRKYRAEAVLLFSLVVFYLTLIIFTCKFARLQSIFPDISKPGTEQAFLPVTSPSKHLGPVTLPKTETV
Kind of test: flow cytometry on CHO-mCD83 cells, anti-hamster IgG secondary. How it is done: as §1

Changes are numbered by the printed parent chain.

B1: anti-CD83 antibody 60B10 (antibody, V domains shown)
VH: QVQLKESGPGLVKPSQSLSLTCSVTGFSITTGGYWWTWIRQFPGQKLEWMGYIFSSGNTNYNPSIKSRISITRDTSKNQFFLQLNSVTTEGDTARYYCARAYGKLGFDYWGQGTLVTVSS
VL: QPVLTQSPSASASLGNSVKITCTLSSQHSTYTIGWYQQHPDKAPKYVMYVNSDGSHSKGDGIPDRFSGSSSGAHRYLSISNIQPEDEADYFCGSSDSSGYVFGSGTQLTVL
notes: also called 60B10 Anti-human CD83
For the molecule B1, the binding result in test [1] and in test [2] was “binds” throughout.

B2: anti-CD83 antibody 42C6 (antibody, V domains shown)
VH: QVQLKESGPGLVKPSQSMSLTCSVNGFSITSRYWWTWIRQFPGKNLEWMGYISYSGGTSYNPSLKSRISITRDTSKNQFFLHLNSVTTADTATYYCARDLYGTYFDYWGQGTMVTVSS
VL: QYELIQPKSVSESLGRTVTISCKRSSGNIGNNYVHWYQQHFGSSPKTVIYDDNKRPSGVPHRFSGSIDSSSNSASLTITDLQIEDEAEYYCQSAWVFGSGTKVTVL
notes: also called 42C6 Anti-mouse CD83
In the case of B2, the results for the binding result in test [1] and in test [2] were “no binding” and “binds”, respectively.

B3: anti-CD83 antibody 39A2 (antibody, V domains shown)
VH: B2 VH with M113L
VL: B2 VL
notes: also called 39A2 Anti-mouse CD83
For the molecule B3, the binding result in test [1] is given as “no binding”; in test [2], “binds”.
